The record followed here is paper PMC9157124 (Plant Physiology, 2022).

The target in this assay is N-terminal FLAG-tagged D1 (FLAG-D1) (Synechocystis sp. PCC 6803, UniProt P16033 1-344). Description: co-IP.

B1: Ycf48 assembly factor (natural protein, Synechocystis sp. PCC 6803 (endogenous), UniProt P73069 29-342, looked up)
chain: CSHVPDLAFNPWQEIALETDSTFADIAFTEDPNHGWLVGTKETIFETTDGGDTWEQKLIDLGEEKASFSAVSFSGNEGWITGKPSILLHTTDGGQTWARIPLSEKLPGAPYSIIALGPQTAEMITDLGAIYKTTNGGKNWKALVEGAVGVARTIQRSTDGRYVAVSARGNFYSTWAPGQTEWTPHNRNSSRRLQTMGYGKDGQLWLLARGGQLQFSTDPDAEEWSDVIAPQDKGSWGLLDLSFRTPEEVWVAGASGNLLMSQDGGQTWAKDTGVEDIPANLYRVVFLSPEKGFVLGQDGILLKYNPSTEVAMVP
For the molecule B1, the stoichiometry N (as a rule, a count of units in the complex or per binding partner) was around 1.
